Reference: PMC2173270 (The Journal of Cell Biology, 2002)
No end group written: not given here. *: point of attachment. Biotin = O=C1N[C@H]2[C@H](CS[C@H]2CCCCC(=O)*)N1

T1: GS15 (endogenous) (rat (endogenous in rat liver Golgi …, UniProt O35152 1-111))
T1 sequence: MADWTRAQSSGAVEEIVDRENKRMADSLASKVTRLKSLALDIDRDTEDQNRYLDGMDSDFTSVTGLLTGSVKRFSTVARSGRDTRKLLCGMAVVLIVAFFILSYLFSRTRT

T2: p115 (rat, UniProt P41542 1-959)
T2 sequence: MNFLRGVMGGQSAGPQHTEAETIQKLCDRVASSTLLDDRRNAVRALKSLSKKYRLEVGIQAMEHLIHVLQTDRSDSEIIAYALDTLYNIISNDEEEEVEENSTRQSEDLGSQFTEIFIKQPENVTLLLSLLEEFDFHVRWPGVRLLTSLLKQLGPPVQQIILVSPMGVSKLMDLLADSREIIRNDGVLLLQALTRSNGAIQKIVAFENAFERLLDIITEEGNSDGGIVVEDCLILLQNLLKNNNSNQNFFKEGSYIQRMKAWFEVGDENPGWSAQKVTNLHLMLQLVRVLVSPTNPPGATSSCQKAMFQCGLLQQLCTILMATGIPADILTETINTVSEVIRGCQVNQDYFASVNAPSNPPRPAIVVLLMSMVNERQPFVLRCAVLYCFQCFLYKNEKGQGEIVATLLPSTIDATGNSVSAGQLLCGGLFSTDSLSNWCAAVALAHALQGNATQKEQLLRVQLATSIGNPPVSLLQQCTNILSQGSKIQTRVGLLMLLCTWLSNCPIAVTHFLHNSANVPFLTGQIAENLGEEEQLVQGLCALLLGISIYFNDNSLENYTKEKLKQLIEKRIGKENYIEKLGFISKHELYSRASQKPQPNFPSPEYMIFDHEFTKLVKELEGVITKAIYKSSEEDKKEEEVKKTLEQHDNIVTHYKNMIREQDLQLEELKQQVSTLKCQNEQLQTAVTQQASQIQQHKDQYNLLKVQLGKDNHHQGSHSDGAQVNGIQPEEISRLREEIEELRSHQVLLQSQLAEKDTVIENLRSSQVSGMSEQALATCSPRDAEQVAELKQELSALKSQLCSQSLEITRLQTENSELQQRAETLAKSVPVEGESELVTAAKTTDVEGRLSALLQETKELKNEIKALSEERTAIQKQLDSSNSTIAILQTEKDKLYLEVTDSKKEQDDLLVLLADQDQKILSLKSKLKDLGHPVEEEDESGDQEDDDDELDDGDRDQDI

B1: GST–syntaxin-5 (domain or fragment)
chain: MIPRKRYGSKNTDQGVYLGLSKTQVLSPATAINSSSDIAPLPTPVALVPSPPDTMSCRDRTQEFLSACKSLQSRQNGIQTNKPALHATRQCSEFTLMARRIGKDLSNTFAKLEKLTILAKRKSLFDDKAVEIEELTYIIKQDINSLNKQIAQLQDFVRAKGSQSGRHLQTHSNTIVVSLQSKLASMSNDFKSVLEVRTENLKQQRNRREQFSRAPVSALPLAPNNLGGGPIVLGGESRASRDVAIDMMDPRTSQQLQLIDEQDSYIQSRADTMQNIESTIVELGSIFQQLAHMVKEQEETIQRIDENVLGAQLDVEAAHSEILKYFQSVTSNR

Columns and labels:
[1] = biological target: the molecule itself; assay: SEC + other: laser light scattering + native gel or EMSA
GS15 (endogenous) = biological target: T1, GS15 (endogenous); assay: co-IP
GST–syntaxin-5 = biological target: B1; assay: pull-down
p115 = biological target: T2, p115; assay: pull-down

| Binder | percent dimeric [1] [%] | percent tetrameric [1] [%] | fold enhancement of complex formation by p115 against no p115 (GS15 (endogenous)) [fold] | also measured |
| --- | --- | --- | --- | --- |
| Biotin-DAEQVAELKQELSALKSQLCSQSLEITRLQTENSELQQRAETLAK [CC3 (aa 783–827 of rat p115)] | ~20 | ~10 |  |  |
| Ykt6p (endogenous) (natural protein) MKLYSLSVFYKGEPKAVLLKAAYDVSSFSFFQRSSVQEFMTFTSQLIVERSAKGSRASVKEQEYLCHVYVRSDSLAGVVIADSEYPSRVAFTLLEKVLDEFSKQVDRIDWPVGSPATIHYTALDGHLSRYQNPREADPMSKVQAELDETKIILHNTMESLLERGEKLDDLVSKSEVLGTQSKAFYKTARKQNSCCAIM |  |  | ~5 |  |
| GOS-28 (endogenous) (natural protein) MAAGTSNYWEDLRKQARQLENELDLKLVSFSKLCTSYSHSSARDGGRDRYSSDTTPLLNGSSQDRMFETMAIEIEQLLARLTGVNDKMAEYTHSAGVPSLNAALMHTLQRHRDILQDYTHEFHKTKANFMAIRERENLMGSVRKDIESYKSGSGVNNRRTELFLKEHDHLRNSDRLIEETISIAMATKENMTSQRGMLKSIHSKMNTLANRFPAVNSLIQRINLRKRRDSLILGGVIGICTILLLLYAFH |  |  | ~5 |  |
| Biotin-QPEEISRLREEIEELRSHQVLLQSQLAEKDTVIENLRS [CC2 (aa 728–765 of rat p115)] | ~20 | ~10 |  |  |
| His–GOS-28 (domain or fragment) AAGTSNYWEDLRKQARQLENELDLKLVSFSKLCTSYSHSSARDGGRDRYSSDTTPLLNGSSQDRMFETMAIEIEQLLARLTGVNDKMAEYTHSAGVPSLNAALMHTLQRHRDILQDYTHEFHKTKANFMAIRERENLMGSVRKDIESYKSGSGVNNRRTELFLKEHDHLRNSDRLIEETISIAMATKENMTSQRGMLKSIHSKMNTLANRFPAVNSLIQRINLRKRRD |  |  |  | fold stimulation of the interaction by p115 against no p115 (GST–syntaxin-5): 4 fold; Kd (p115): 1500 nM |
| CC4 (aa 843–930 of rat p115) (NH2-terminally biotinylated) peptide: TTDVEGRLSALLQETKELKNEIKALSEERTAIQKQLDSSNSTIAILQTEKDKLYLEVTDSKKEQDDLLVLLADQDQKILSLKSKLKDL | ~20 | ~10 |  |  |
| syntaxin-5 (endogenous) (natural protein) MIPRKRYGSKNTDQGVYLGLSKTQVLSPATAINSSSDIAPLPTPVALVPSPPDTMSCRDRTQEFLSACKSLQSRQNGIQTNKPALHATRQCSEFTLMARRIGKDLSNTFAKLEKLTILAKRKSLFDDKAVEIEELTYIIKQDINSLNKQIAQLQDFVRAKGSQSGRHLQTHSNTIVVSLQSKLASMSNDFKSVLEVRTENLKQQRNRREQFSRAPVSALPLAPNNLGGGPIVLGGESRASRDVAIDMMDPRTSQQLQLIDEQDSYIQSRADTMQNIESTIVELGSIFQQLAHMVKEQEETIQRIDENVLGAQLDVEAAHSEILKYFQSVTSNRWLMVKIFLILIVFFIIFVVFLA |  |  | ~5 |  |
| CC1 (aa 637–699 of rat p115) (peptide) peptide: Biotin-KEEEVKKTLEQHDNIVTHYKNMIREQDLQLEELKQQVSTLKCQNEQLQTAVTQQASQIQQHKD | ~20 | ~10 |  |  |
| B1 |  |  |  | Kd (p115): 1800 nM |
